Experiment [1] deals with aεFab^1–IgE-Fc complex (one aεFab bound to IgE-Fc) (UniProt P01854). The experiment is described as follows: SPR.
Experiment [2] has as its target Fcε3-4 sub-fragment of IgE-Fc (human). Description: ITC.

B1: anti-ε-chain Fab (aεFab), anti-human IgE-Fc antibody in human IgG1 Fab format (Fab, V domains shown)
VH: QVQLQQSGPGLVKPSQTLSLTCGISGDSVSSNSAAWNWLRQSPSRGLEWLGRTYYRSKWYNDYAVSMKSRITINPDTSRNQFSLQLNSVTPEDTAVYYCARDGEISYDYYYYGMDVWGRGTLVTVSS
VL: QSVLTQPPSASGTPGQRVTISCSGSSSNIGNNGVNWYQQVPGKPPKLLIYYDDLLPSGVSDRFSGSKSGTSASLAISGLQSEDEADYYCEAWDDSLDGVVFGGGTKLTVL
B1 returned a Kd in experiment [1] of 1400 nM. In experiment [2], this molecule gave a Kd2 (second site, sequential two-site fit) of 0.98 µM.

Values taken from article PMC3977038.
